Measured values published in patent US20180117114A1, “PEPTIDES THAT MODULATE THE EFFECT OF THE CRMP: NEUROFIBROMIN COMPLEX ON SYNAPTIC TRANSMISSION” (Indiana University Research and Technology Coporation, priority 2015, published 2018).

Legend:
Test in all cases: cell-based or functional assay
[1] = biological target: CaV2.2 in transfected neurons
[2] = biological target: CaV2.2 expressed in human embryonic kidney 293 (HEK293) cells
[3] = biological target: CaV2.2 in dorsal root ganglion neurons from Nf1+/- mice (mouse) (UniProt O55017)
Sequence of CaV2.2 in dorsal root ganglion neurons from Nf1+/- mice (mouse) (O55017 whole entry): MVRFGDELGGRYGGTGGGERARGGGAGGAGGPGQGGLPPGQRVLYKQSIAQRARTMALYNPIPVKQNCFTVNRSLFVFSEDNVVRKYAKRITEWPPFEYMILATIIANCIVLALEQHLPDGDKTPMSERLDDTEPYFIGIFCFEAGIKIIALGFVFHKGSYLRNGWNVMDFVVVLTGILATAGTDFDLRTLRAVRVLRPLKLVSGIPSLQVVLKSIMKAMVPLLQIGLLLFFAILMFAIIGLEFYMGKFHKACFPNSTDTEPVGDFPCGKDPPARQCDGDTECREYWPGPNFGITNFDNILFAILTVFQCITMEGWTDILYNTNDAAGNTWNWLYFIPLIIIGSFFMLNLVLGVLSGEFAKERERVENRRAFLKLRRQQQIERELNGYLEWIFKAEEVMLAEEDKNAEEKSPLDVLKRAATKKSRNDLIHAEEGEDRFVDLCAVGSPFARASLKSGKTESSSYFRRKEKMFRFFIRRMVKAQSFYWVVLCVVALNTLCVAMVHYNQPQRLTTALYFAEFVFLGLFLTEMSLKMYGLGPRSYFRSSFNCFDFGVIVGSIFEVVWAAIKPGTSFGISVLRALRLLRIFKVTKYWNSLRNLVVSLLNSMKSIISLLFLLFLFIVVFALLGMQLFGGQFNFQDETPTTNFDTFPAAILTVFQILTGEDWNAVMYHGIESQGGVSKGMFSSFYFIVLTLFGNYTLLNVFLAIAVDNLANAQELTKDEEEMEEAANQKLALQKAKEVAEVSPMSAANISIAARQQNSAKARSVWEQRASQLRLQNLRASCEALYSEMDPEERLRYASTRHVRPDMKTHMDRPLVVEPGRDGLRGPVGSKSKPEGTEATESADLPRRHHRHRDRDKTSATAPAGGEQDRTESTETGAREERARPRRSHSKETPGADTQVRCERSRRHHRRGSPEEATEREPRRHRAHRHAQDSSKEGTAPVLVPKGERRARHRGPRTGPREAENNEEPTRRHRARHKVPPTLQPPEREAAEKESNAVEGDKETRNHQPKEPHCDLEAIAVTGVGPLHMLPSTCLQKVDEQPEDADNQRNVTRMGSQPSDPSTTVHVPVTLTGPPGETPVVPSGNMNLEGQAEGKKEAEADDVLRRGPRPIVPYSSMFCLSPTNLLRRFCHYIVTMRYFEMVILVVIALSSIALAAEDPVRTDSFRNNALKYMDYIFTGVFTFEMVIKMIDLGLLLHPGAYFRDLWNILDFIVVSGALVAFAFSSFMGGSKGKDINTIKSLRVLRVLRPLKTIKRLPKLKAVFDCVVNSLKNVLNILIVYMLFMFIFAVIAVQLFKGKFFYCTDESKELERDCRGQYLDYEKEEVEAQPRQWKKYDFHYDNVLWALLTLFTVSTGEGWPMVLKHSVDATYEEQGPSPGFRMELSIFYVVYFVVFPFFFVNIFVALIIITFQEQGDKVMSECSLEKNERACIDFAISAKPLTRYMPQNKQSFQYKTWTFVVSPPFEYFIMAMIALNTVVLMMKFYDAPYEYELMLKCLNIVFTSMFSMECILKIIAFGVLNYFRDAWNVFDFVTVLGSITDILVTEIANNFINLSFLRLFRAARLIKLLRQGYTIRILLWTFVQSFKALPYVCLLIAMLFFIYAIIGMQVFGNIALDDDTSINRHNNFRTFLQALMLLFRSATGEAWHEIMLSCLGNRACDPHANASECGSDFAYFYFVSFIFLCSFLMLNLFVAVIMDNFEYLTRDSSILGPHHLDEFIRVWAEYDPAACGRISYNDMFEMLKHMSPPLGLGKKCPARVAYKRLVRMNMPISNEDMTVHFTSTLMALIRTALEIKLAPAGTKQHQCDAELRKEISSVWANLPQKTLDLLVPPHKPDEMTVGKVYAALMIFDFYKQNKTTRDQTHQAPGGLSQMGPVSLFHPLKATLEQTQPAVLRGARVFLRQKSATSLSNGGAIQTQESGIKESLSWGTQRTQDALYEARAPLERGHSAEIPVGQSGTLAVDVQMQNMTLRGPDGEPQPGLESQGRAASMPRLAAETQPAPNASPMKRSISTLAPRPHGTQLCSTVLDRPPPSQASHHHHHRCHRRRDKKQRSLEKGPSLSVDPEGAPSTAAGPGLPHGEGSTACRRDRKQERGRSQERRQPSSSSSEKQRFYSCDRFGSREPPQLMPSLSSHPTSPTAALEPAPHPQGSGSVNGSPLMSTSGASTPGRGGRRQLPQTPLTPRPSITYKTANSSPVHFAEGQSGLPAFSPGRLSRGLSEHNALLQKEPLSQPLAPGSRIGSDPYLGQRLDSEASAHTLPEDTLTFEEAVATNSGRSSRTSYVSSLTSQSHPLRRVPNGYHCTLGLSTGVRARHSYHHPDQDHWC

reduction of peak Ca^2+ current density compared to CRMP-2 neurons (whole-cell voltage clamp) [1] | cells exhibiting CaV2.2 staining on the surface [2] | Substance | reduction in KCl-stimulated CGRP release compared with TAT-control (10 µM TAT-CBD3) [3]
64% | 10% | CBD3 peptide fused to enhanced green fluorescent protein (EGFP) | –
– | – | TAT-CBD3 (peptide) | 85%
